Assay results published in US7074560B2, “Purification of tissue plasminogen activator (tPA)” (Dyax Corp., priority 1996, dated 2006).
Positions of bridges follow the written chain, without caps; N, C: chain ends. No end group written: not given here.

Target: tPA (Homo sapiens, UniProt P00750)
Assay: 15-amino acid segment bound to a chromatographic support: tPA binding
Conditions: initial studies
Excerpt: As noted above, almost all of the variegation in amino acid positions used in building the CMTI library occurred between two cyteines at positions 3 and 10 of CMTI-I (see Table 3). In the parental CMTI protein, these cysteines form disulfide bonds with other cysteine residues elsewhere in the protein (see SEQ ID NO: 1), however with the successful isolation of affinity ligands from the CMTI library, a secondary library was conceptualized which was based on variegating a truncated 15-amino acid segment of the isolate #109 (see amino acids 1–15 of SEQ ID NO: 12). If the C3 and C10 cysteines of these members formed a disulfide bond, then a constrained loop having tPA binding properties might be obtained.

Chain of tPA (P00750 36-562): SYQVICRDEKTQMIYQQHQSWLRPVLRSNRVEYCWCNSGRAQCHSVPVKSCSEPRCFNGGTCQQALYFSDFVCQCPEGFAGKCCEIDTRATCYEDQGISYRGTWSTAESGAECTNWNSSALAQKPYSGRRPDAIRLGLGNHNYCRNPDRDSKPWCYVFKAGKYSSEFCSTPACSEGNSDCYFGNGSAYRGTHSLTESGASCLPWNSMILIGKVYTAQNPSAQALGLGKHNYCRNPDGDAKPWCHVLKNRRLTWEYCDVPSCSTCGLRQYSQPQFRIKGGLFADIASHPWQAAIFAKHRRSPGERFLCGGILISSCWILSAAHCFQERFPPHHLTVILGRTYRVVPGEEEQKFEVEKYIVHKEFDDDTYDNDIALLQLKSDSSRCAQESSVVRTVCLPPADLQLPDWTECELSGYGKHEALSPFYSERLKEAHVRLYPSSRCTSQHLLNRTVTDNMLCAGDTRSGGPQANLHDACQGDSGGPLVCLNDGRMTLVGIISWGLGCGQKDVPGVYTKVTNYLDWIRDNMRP

## 15-amino acid segment derived from affinity ligand isolate #109: truncated 15-amino acid segment of isolate #109 (amino acids 1–15 of SEQ ID NO: 12), C3–C10 disulfide loop (RLCPKTDLGCMKDSD; disulfide 3-10)
  binding of the immobilized C3–C10 loop to tPA: bound to tPA
